In US20180030149A1 (AVEO PHARMACEUTICALS, published 2018):

target: T1, recombinant human ErbB3 monomeric protein (cleaved rhErbB3) (human, UniProt P21860 20-643, limits assumed); assay: SPR Biacore 37 C; supernatant antibody captured on anti-human Fc, cleaved rhErbB3 injected
T1 construct: Monomer made by protease cleavage of the Fc fusion; also called Monomeric ErbB3
Procedure: The analyses were performed at 37° C. using PBS (Invitrogen, Catalog No. 14040-133) containing 0.05% surfactant P20 (Biacore, Catalog No. BR-1000-54) as running buffer.
The antibodies were captured in individual flow cells at a flow rate of […]. Injection time was varied for each antibody to yield an Rₘₐₓ between 30 and 60 RU. […] The dissociation phase was monitored for up to 1200 seconds. The surface was then regenerated with two 60 second injections of Glycine pH 2.25 (made from Glycine pH 2.0 (Biacore, Catalog No. BR-1003-55) and pH 2.5 (Biacore, Catalog No. BR-1003-56)) at […].
Kinetic parameters were determined using the kinetic function of the BIAevaluation software (Biacore) with double reference subtraction. Kinetic parameters for each antibody, kₐ (association rate constant), kd (dissociation rate constant) and KD (equilibrium dissociation constant) were determined.

| Kd [nM] | koff [s⁻¹] | kon [M⁻¹ s⁻¹] | Binder |
| --- | --- | --- | --- |
| 0.707 | 0.00606 | 8.57e+06 | Sh24C05-45 (antibody, human IgG1, kappa, V domains shown, Humanized, human IgG1/kappa) VH: EVQLVESGGGLVKPGGSLRLSCAASGFTFSDYAMSWVRQAPGKGLEWVSTISDGGTYTYYPDNVKGRFTISRDNAKNSLYLQMNSLRAEDTAVYYCAREWGDYDGFDYWGQGTLVTVSS VL: DIQMTQSPSSLSASVGDRVTITCRASQEISGYLSWYQQKPGKAPKLLIYAASTLDSGVPSRFSGSGSGTDFTLTISSLQPEDFATYYCLQYDSYPYTFGQGTKLEIKR |
| 0.552 | 0.006 | 1.09e+07 | Sh24C05-34 (antibody, human IgG1, kappa, V domains shown, Humanized, human IgG1/kappa) VH: EVQLLESGGGLVQPGGSLRLSCAASGFTFSDYAMSWVRQAPGKGLEWVSTISDGGTYTYYPDNVKGRFTISRDNSKNTLYLQMNSLRAEDTAVYYCAREWGDYDGFDYWGQGTLVTVSS VL: DIQMTQSPSSLSASVGDRVTITCRASQEISGYLSWYQQKPGKAPKLLIYAASTLDSGVPSRFSGSGSGTDFTFTISSLQPEDIATYYCLQYDSYPYTFGQGTKLEIKR |
| 0.22 | 0.000739 | 3.36e+06 | Sh24C05-26 (antibody, human IgG1, kappa, Humanized, human IgG1/kappa) heavy: not shown light: DIQMTQSPSSLSASVGDRVTITCRASQEISGYLSWYQQKPGKAPKRLIYAASTLDSGVPSRFSGSGSGTEFTLTISSLQPEDFATYYCLQYDSYPYTFGQGTKLEIKRTVAAPSVFIFPPSDEQLKSGTASVVCLLNNFYPREAKVQWKVDNALQSGNSQESVTEQDSKDSTYSLSSTLTLSKADYEKHKVYACEVTHQGLSSPVTKSFNRGEC |
| 0.19 | 0.000787 | 4.48e+06 | Sh24C05-30 (antibody, human IgG1, kappa, Humanized, human IgG1/kappa) heavy: not shown light: DIQMTQSPSSLSASVGDRVTITCRASQEISGYLSWYQQKPGKAPKRLIYAASTLDSGVPSRFSGSGSGTEFTLTISSLQPEDFATYYCLQYDSYPYTFGQGTKLEIKRTVAAPSVFIFPPSDEQLKSGTASVVCLLNNFYPREAKVQWKVDNALQSGNSQESVTEQDSKDSTYSLSSTLTLSKADYEKHKVYACEVTHQGLSSPVTKSFNRGEC |
| 0.24 | 0.000798 | 3.34e+06 | Sh24C05-27 (antibody, human IgG1, kappa, V domains shown, Humanized, human IgG1/kappa) VH: EVQLVESGGGLVKPGGSLRLSCAASGFTFSDYAMSWVRQAPGKGLEWVSTISDGGTYTYYPDNVKGRFTISRDNAKNSLYLQMNSLRAEDTAVYYCAREWGDYDGFDYWGQGTLVTVSS VL: DIQMTQSPSSLSASVGDRVTITCRASQEISGYLSWYQQKPGKAPKRLIYAASTLDSGVPSRFSGSGSGTEFTLTISSLQPEDFATYYCLQYDSYPYTFGQGTKLEIKR |
| 0.655 | 0.00553 | 8.44e+06 | Sh24C05-35 (antibody, human IgG1, kappa, V domains shown, Humanized, human IgG1/kappa) VH: QVQLVESGGGVVQPGRSLRLSCAASGFTFSDYAMSWVRQAPGKGLEWVATISDGGTYTYYPDNVKGRFTISRDNSKNTLYLQMSSLRAEDTAVYYCAREWGDYDGFDYWGQGTLVTVSS VL: DIQMTQSPSSLSASVGDRVTITCRASQEISGYLSWYQQKPGKAPKLLIYAASTLDSGVPSRFSGSGSGTDFTFTISSLQPEDIATYYCLQYDSYPYTFGQGTKLEIKR |
| 0.173 | 0.000498 | 2.88e+06 | Sh24C05-14 (antibody, human IgG1, kappa, Humanized, human IgG1/kappa) heavy: not shown light: DIQMTQSPSSLSASVGDRVTITCRASQEISGYLSWLQQKPGGAIKRLIYAASTLDSGVPSRFSGSGSGSDYTLTISSLQPEDFATYYCLQYDSYPYTFGQGTKLEIKRTVAAPSVFIFPPSDEQLKSGTASVVCLLNNFYPREAKVQWKVDNALQSGNSQESVTEQDSKDSTYSLSSTLTLSKADYEKHKVYACEVTHQGLSSPVTKSFNRGEC |
| 0.22 | 0.000662 | 3.11e+06 | Sh24C05-21 (antibody, human IgG1, kappa, V domains shown, Humanized, human IgG1/kappa) VH: EVQLVESGGGLVKPGGSLRLSCAASGFTFSDYAMSWVRQAPGKGLEWVSTISDGGTYTYYPDNVKGRFTISRDNAKNSLYLQMNSLRAEDTAVYYCAREWGDYDGFDYWGQGTLVTVSS VL: DIQMTQSPSSLSASVGDRVTITCRASQEISGYLSWFQQKPGKAPKSLIYAASTLDSGVPSRFSGSGSGTDFTLTISSLQPEDFATYYCLQYDSYPYTFGQGTKLEIKR |
| 0.263 | 0.000721 | 2.79e+06 | Sh24C05-23 (antibody, human IgG1, kappa, V domains shown, Humanized, human IgG1/kappa) VH: QVQLVESGGGVVQPGRSLRLSCAASGFTFSDYAMSWVRQAPGKGLEWVATISDGGTYTYYPDNVKGRFTISRDNSKNTLYLQMSSLRAEDTAVYYCAREWGDYDGFDYWGQGTLVTVSS VL: DIQMTQSPSSLSASVGDRVTITCRASQEISGYLSWFQQKPGKAPKSLIYAASTLDSGVPSRFSGSGSGTDFTLTISSLQPEDFATYYCLQYDSYPYTFGQGTKLEIKR |
| 0.161 | 0.000463 | 2.88e+06 | Sh24C05-18 (antibody, human IgG1, kappa, Humanized, human IgG1/kappa) heavy: not shown light: DIQMTQSPSSLSASVGDRVTITCRASQEISGYLSWLQQKPGGAIKRLIYAASTLDSGVPSRFSGSGSGSDYTLTISSLQPEDFATYYCLQYDSYPYTFGQGTKLEIKRTVAAPSVFIFPPSDEQLKSGTASVVCLLNNFYPREAKVQWKVDNALQSGNSQESVTEQDSKDSTYSLSSTLTLSKADYEKHKVYACEVTHQGLSSPVTKSFNRGEC |
| 0.189 | 0.000614 | 3.26e+06 | Sh24C05-28 (antibody, human IgG1, kappa, V domains shown, Humanized, human IgG1/kappa) VH: EVQLLESGGGLVQPGGSLRLSCAASGFTFSDYAMSWVRQAPGKGLEWVSTISDGGTYTYYPDNVKGRFTISRDNSKNTLYLQMNSLRAEDTAVYYCAREWGDYDGFDYWGQGTLVTVSS VL: DIQMTQSPSSLSASVGDRVTITCRASQEISGYLSWYQQKPGKAPKRLIYAASTLDSGVPSRFSGSGSGTEFTLTISSLQPEDFATYYCLQYDSYPYTFGQGTKLEIKR |
| 0.147 | 0.000404 | 2.75e+06 | Sh24C05-16 (antibody, human IgG1, kappa, V domains shown, Humanized, human IgG1/kappa) VH: EVQLLESGGGLVQPGGSLRLSCAASGFTFSDYAMSWVRQAPGKGLEWVSTISDGGTYTYYPDNVKGRFTISRDNSKNTLYLQMNSLRAEDTAVYYCAREWGDYDGFDYWGQGTLVTVSS VL: DIQMTQSPSSLSASVGDRVTITCRASQEISGYLSWLQQKPGGAIKRLIYAASTLDSGVPSRFSGSGSGSDYTLTISSLQPEDFATYYCLQYDSYPYTFGQGTKLEIKR |
| 1.08 | 0.00433 | 4.02e+06 | Sh24C05-33 (antibody, human IgG1, kappa, V domains shown, Humanized, human IgG1/kappa) VH: EVQLVESGGGLVKPGGSLRLSCAASGFTFSDYAMSWVRQAPGKGLEWVSTISDGGTYTYYPDNVKGRFTISRDNAKNSLYLQMNSLRAEDTAVYYCAREWGDYDGFDYWGQGTLVTVSS VL: DIQMTQSPSSLSASVGDRVTITCRASQEISGYLSWYQQKPGKAPKLLIYAASTLDSGVPSRFSGSGSGTDFTFTISSLQPEDIATYYCLQYDSYPYTFGQGTKLEIKR |
| 0.0855 | 0.000255 | 3e+06 | Sh24C05-19 (antibody, human IgG1, kappa, V domains shown, Humanized, human IgG1/kappa) VH: QVQLVESGGGLVKPGGSLRLSCAASGFTFSDYAMSWIRQAPGKGLEWVSTISDGGTYTYYPDNVKGRFTISRDNAKNSLYLQMNSLRAEDTAVYYCAREWGDYDGFDYWGQGTLVTVSS VL: DIQMTQSPSSLSASVGDRVTITCRASQEISGYLSWLQQKPGGAIKRLIYAASTLDSGVPSRFSGSGSGSDYTLTISSLQPEDFATYYCLQYDSYPYTFGQGTKLEIKR |
| 0.216 | 0.000601 | 2.79e+06 | Sh24C05-22 (antibody, human IgG1, kappa, V domains shown, Humanized, human IgG1/kappa) VH: EVQLLESGGGLVQPGGSLRLSCAASGFTFSDYAMSWVRQAPGKGLEWVSTISDGGTYTYYPDNVKGRFTISRDNSKNTLYLQMNSLRAEDTAVYYCAREWGDYDGFDYWGQGTLVTVSS VL: DIQMTQSPSSLSASVGDRVTITCRASQEISGYLSWFQQKPGKAPKSLIYAASTLDSGVPSRFSGSGSGTDFTLTISSLQPEDFATYYCLQYDSYPYTFGQGTKLEIKR |
| 0.218 | 0.000628 | 2.9e+06 | Sh24C05-24 (antibody, human IgG1, kappa, Humanized, human IgG1/kappa) heavy: not shown light: DIQMTQSPSSLSASVGDRVTITCRASQEISGYLSWFQQKPGKAPKSLIYAASTLDSGVPSRFSGSGSGTDFTLTISSLQPEDFATYYCLQYDSYPYTFGQGTKLEIKRTVAAPSVFIFPPSDEQLKSGTASVVCLLNNFYPREAKVQWKVDNALQSGNSQESVTEQDSKDSTYSLSSTLTLSKADYEKHKVYACEVTHQGLSSPVTKSFNRGEC |
| 0.221 | 0.000591 | 2.67e+06 | Sh24C05-20 (antibody, human IgG1, kappa, Humanized, human IgG1/kappa) heavy: not shown light: DIQMTQSPSSLSASVGDRVTITCRASQEISGYLSWFQQKPGKAPKSLIYAASTLDSGVPSRFSGSGSGTDFTLTISSLQPEDFATYYCLQYDSYPYTFGQGTKLEIKRTVAAPSVFIFPPSDEQLKSGTASVVCLLNNFYPREAKVQWKVDNALQSGNSQESVTEQDSKDSTYSLSSTLTLSKADYEKHKVYACEVTHQGLSSPVTKSFNRGEC |
| 0.182 | 0.000588 | 3.25e+06 | Sh24C05-29 (antibody, human IgG1, kappa, V domains shown, Humanized, human IgG1/kappa) VH: QVQLVESGGGVVQPGRSLRLSCAASGFTFSDYAMSWVRQAPGKGLEWVATISDGGTYTYYPDNVKGRFTISRDNSKNTLYLQMSSLRAEDTAVYYCAREWGDYDGFDYWGQGTLVTVSS VL: DIQMTQSPSSLSASVGDRVTITCRASQEISGYLSWYQQKPGKAPKRLIYAASTLDSGVPSRFSGSGSGTEFTLTISSLQPEDFATYYCLQYDSYPYTFGQGTKLEIKR |
| 0.187 | 0.000499 | 2.67e+06 | Sh24C05-15 (antibody, human IgG1, kappa, V domains shown, Humanized, human IgG1/kappa) VH: EVQLVESGGGLVKPGGSLRLSCAASGFTFSDYAMSWVRQAPGKGLEWVSTISDGGTYTYYPDNVKGRFTISRDNAKNSLYLQMNSLRAEDTAVYYCAREWGDYDGFDYWGQGTLVTVSS VL: DIQMTQSPSSLSASVGDRVTITCRASQEISGYLSWLQQKPGGAIKRLIYAASTLDSGVPSRFSGSGSGSDYTLTISSLQPEDFATYYCLQYDSYPYTFGQGTKLEIKR |
